Experiment [1] addresses T1, human IL-5 with his-tag (rhIL-5-his) (human, UniProt P05113 20-134).
T1 construct: It was expressed in HEK293 and purified from the supernatant; also called HuIL-5; recombinant human IL-5
T1 sequence: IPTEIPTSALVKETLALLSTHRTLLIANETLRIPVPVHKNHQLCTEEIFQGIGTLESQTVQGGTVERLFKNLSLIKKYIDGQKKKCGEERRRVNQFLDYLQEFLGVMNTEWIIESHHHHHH
Nature of the experiment: Biacore. Here is the method:
(§1) The affinity of the murine IL-5 antibody to be tested with human IL-5 was measured by Biacore T200 (GE) instrument.
(§2) The protein A biosensor chip was used to affinity capture of the molecules to be tested, and then the antigen (recombinant human and cyno IL-5 prepared in Example 1) flowed through the surface of the chip, and the reaction signal was detected in real time with the Biacore T200 instrument to obtain the binding and dissociation curves. After the dissociation of each experimental cycle was completed, the biosensor chip was washed and regenerated with glycine-hydrochloric acid regeneration solution (pH 1.5). BIA evaluation version 4.1 GE software was used to fit the data against (1:1) Langmuir model, and the affinity value was obtained and shown in Table 13.
(In SPR one partner is held on a chip, and binding of the other changes the refractive index at the surface.)

In experiment [2] the target is T1, human IL-5 with his-tag (rhIL-5-his). The experiment can be described thus: Biacore T200, antibody captured on protein A chip, antigen in flow, 1:1 Langmuir. Here is the method: as §1, §2
The target in experiment [3] is T2, cyno IL-5 with his-tag (cyno (paragraph 156 says rhesus), UniProt P48093 20-134 (rhesus entry)).
T2 construct: also called rhesus IL-5 with His-tag; monkey IL-5
T2 sequence: T1 sequence with T7A, D80G
Described as above. The procedure:
as §1, §2

Experiment [4] deals with T1, human IL-5 with his-tag (rhIL-5-his). Nature of the experiment: competition ELISA: IL-5 coated, biotin-IL-5Rα (10 µg/ml) as competitor, antibody diluted. Here is the method: To identify the ability of IL-5 antibody to block IL-5 from binding to the extracellular region of recombinantly expressed IL-5α receptor protein, IL-5 (5 μg/ml in PBS) was coated on an ELISA plate and incubated at 37° C. for 1 hour; the liquid was removed, 200 μl/well of 5% skimmed milk blocking solution diluted with PBS was added, and incubated for 2.5 hours in a 37° C. incubator for blocking. After blocking, the blocking solution was removed and the plate was washed with PBST buffer (pH 7.4 PBS comprising 0.05% Tween-20) for 5 times; 25 μl of 10 μg/ml IL-5Rα (in 1% BSA) labeled by a biotin labeling kit (Tojin Chemical, LK03) was added, and then 25 μl of gradient-diluted antibody was added (the antibody competed with IL-5Rα for the binding with IL-5) and incubated at 37° C. for 1 hour. After the incubation, the reaction solution in the microtiter plate was removed, the plate was washed for 5 times with PBST, added with 50 μl/well of Streptavidin-Peroxidase Polymer (Sigma, 52438-250UG) diluted with sample dilution solution at 1:600 and incubated for 1 hour at 37° C.
(ELISA stands for enzyme-linked immunosorbent assay.)

For experiment [5] the target is unchanged. Nature of the experiment: cell-based or functional assay.
Experiment [6] shares this target. Nature of the experiment: cell-based or functional assay. The source holds these as a separate data set.
Experiment [7] shares this target. Nature of the experiment: Biacore T200, antibody captured on protein A chip, antigen in flow, 1:1 Langmuir. The procedure:
The affinity of the humanized IL-5 antibody to be tested with human IL-5 was measured by Biacore T200 (GE) instrument.
as §2, with “(prepared” for “(recombinant human and cyno IL-5 prepared”, “14.” for “13.”
The source holds these as a separate data set.

Experiment [8] shares this target. The experiment can be described thus: FACS blocking: biotin-IL-5 (100 ng/ml) binding to IL-5Rα/β-CHOS cells, antibody diluted. The procedure: Particular method was as follows: CD-CHO comprising […] and […] zeozin was used to culture CHO-S-IL-5Rα and β. During cell culture, the concentration should not exceed 3×10⁶ cells/ml. IL-5Rα/β-CHOS cells in good condition were centrifuged (at 1000 rpm, 5 min), and washed once with 10% FBS in PBS, and the cells were counted, the cell concentration was adjusted to 4×10⁶ cells/ml, and 25 μl was taken out and added into a round-bottom 96-well plate. The antibody to be tested was diluted with PBS solution comprising 10% FBS. The initial concentration was 200 μg/ml, and diluted at 1:10 for 8 gradient dilutions. 25 μl of 100 ng/ml IL-5 labeled by a biotin labeling kit (Tojin Chemical, LK03) was added, and fully mixed with 50 μl of diluted antibody at each concentration, and added into 96-well plate that has been added with cells, and incubated at 4° C. for 1 hour. After the incubation, the sample was centrifuged at 4° C. (400 g, 5 min), and the supernatant was removed, the plated was washed with 200 μl of pre-cooled PBS by centrifugation, repeated for twice; PE-Avidin secondary antibody diluted at 1:1333 was added and incubated in the dark at 4° C. for 40 min, centrifuged at 4° C.

The target of experiment [9] is IL2 (R&D, 202-IL-010/CF) (UniProt P60568 21-153). Nature of the experiment: Fortebio biolayer interferometry: antibody captured on Protein A biosensor, 40 nM cytokine injected; signal relative to IL-5 = 100%. Here is the method:
(§3) IL-5 was one of Th2 cytokines.
(§4) In particular: Protein A Biosensor (PALL Fortebio, 18-5010) was used to capture the antibody, the capture signal was recorded, and then 40 nM each cytokine was injected, the new binding signal was recorded. Finally, the binding signal with IL-5 was defined as 100%.
On the technique in general: In BLI a coated tip is dipped into the sample, and binding shifts an interference pattern.

The target of experiment [10] is T3, IL4 (R&D, 204-IL-050/CF) (UniProt P05112 25-153).
T3 sequence (looked up): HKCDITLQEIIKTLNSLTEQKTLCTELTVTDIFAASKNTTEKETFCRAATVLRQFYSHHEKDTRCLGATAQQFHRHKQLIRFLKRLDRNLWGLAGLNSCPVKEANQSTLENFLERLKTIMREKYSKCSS
Described as above. The procedure:
as §3, §4

The target of experiment [11] is T4, IFNgamma (UniProt P01579 24-166, limits assumed).
T4 sequence (looked up): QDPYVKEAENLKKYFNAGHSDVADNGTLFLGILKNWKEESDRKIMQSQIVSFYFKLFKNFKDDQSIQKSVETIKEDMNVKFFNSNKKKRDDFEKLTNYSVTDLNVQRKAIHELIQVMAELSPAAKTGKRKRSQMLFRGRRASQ
The description is as above. Here is the method: as §3, §4

Experiment [12] concerns the target IL6 (R&D, 7270-IL-025/CF) (UniProt P05231 30-212, limits assumed). Described as above. Here is the method:
as §3, §4

For experiment [13], the target named is IL9 (R&D, 209-IL-010/CF) (UniProt P15248 19-144). The description is as above. Here is the method: as §3, §4
Experiment [14] has as its target IL10 (R&D, 217-IL-025/CF) (UniProt P22301 19-178). Described as above. The procedure:
as §3, §4

Experiment [15] deals with IL13 (R&D, 213-ILB-025/CF) (UniProt P35225 35-146). The description is as above. The procedure:
as §3, §4

Experiment [16] has as its target T5, IL25 (R&D, 8134-IL-025/CF) (UniProt Q9H293 33-177).
T5 sequence (looked up): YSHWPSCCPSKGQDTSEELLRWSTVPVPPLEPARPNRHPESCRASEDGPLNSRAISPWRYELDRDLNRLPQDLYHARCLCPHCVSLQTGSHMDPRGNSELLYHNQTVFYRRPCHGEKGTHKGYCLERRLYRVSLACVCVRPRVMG
The experiment is described as above. Here is the method: as §3, §4

Experiment [17] deals with T6, IL31 (R&D, 2824-IL-010/CF) (UniProt Q6EBC2 24-164).
T6 sequence (looked up): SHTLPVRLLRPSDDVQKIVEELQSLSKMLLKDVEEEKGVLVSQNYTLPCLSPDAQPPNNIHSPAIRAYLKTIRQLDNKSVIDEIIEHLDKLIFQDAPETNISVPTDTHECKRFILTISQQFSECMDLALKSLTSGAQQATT
Described as above. Here is the method: as §3, §4

Experiment [18] has as its target T7, IL3 (203-IL-050/CF) (UniProt P08700 20-152).
T7 sequence (looked up): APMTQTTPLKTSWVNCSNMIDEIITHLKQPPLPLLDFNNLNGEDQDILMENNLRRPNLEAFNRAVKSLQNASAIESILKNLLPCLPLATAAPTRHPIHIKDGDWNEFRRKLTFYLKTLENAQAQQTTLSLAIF
The experiment is described as above. The procedure: as §3, §4

Experiment [19] has as its target GMCSF (R&D, 215-GM-010/CF) (UniProt P04141 18-144). The description is as above. The procedure: as §3, §4

Numbering of substitutions follows the chain as printed. Names may count otherwise.

This note sets out measurements from US20220144937A1 (JIANGSU HENGRUI MEDICINE, published 2022).

IL9 (R&D, 209-IL-010/CF), sequence (P15248 19-144 limits assumed): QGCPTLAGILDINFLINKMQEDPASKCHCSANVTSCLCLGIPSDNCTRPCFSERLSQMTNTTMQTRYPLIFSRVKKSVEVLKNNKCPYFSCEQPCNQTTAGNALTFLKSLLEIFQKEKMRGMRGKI
IL2 (R&D, 202-IL-010/CF), sequence (P60568 21-153 limits assumed): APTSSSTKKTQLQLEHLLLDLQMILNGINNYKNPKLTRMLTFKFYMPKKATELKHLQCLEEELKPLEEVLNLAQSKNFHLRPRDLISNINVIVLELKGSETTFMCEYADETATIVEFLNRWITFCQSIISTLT
IL13 (R&D, 213-ILB-025/CF), sequence (P35225 35-146 limits assumed): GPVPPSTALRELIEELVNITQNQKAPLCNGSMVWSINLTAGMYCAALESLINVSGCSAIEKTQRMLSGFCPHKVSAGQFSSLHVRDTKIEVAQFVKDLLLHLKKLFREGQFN
IL10 (R&D, 217-IL-025/CF), sequence (P22301 19-178 limits assumed): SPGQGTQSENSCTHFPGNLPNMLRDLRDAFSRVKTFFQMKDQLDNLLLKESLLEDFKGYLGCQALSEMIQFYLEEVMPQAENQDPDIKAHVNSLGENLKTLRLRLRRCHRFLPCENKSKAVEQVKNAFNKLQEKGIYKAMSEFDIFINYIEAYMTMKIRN
GMCSF (R&D, 215-GM-010/CF), sequence (P04141 18-144 limits assumed): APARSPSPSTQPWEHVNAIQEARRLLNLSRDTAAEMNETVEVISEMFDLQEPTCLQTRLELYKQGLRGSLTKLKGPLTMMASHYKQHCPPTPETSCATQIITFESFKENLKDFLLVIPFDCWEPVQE

B1: mAb1705 (antibody, V domains shown)
VH: EVQLVESGGGLVQPGRSLKLSCTASGFTFSHYYMAWVRQAPKKGLEWVTSISYEGDITYYGDSVKGRFTISRDNAKSTLYLQMNSLRSEDTATYYCASQTLRESFDYWGQGVMVTVSS
VL: DIQMTQSPSSMSVSLGDRVTITCRASQDIANYLSWYQQKIARSPKLVIYGTSNLEVGVPSRFSGSRSGSDYSLTINTLESEDTGIYFCLQDKEFPRTFGGGTRLELK
notes: Murine hybridoma antibody
In the case of B1, the Kd (usually the concentration at which binding is half-saturated) in experiment [1] was found to be 0.0727 nM; in [2], 0.0727 nM; in experiment [3] it was 0.205 nM. In experiment [4], the IC50 (as a rule, the midpoint of a concentration-inhibition curve) was determined as 0.42 µg/mL.

B2: h1706-009 (antibody, human IgG1, kappa, V domains shown)
VH: EVQLVESGGGLVQPGGSLRLSCAASGFTFSHYYMAWVRQAPGKGLEWVSSINYEGNSAYYGDSVKGRFTISRDNSKNTLYLQMNSLRAEDTAVYYCATETLRESLDYWGQGTMVTVSS
VL: DIQMTQSPSSVSASVGDRVTITCRASQDIGNYLSWYQQKPGKSPKLMIYSASNLEVGVPSRFSGSGSGTDYTLTISSLQPEDFATYFCLQHKQFPRTFGGGTKVEIKR
B2: the “IC50 of inhibition of IL-5 induced TF1 cell proliferation” value in experiment [5] was determined as 0.25 nM. The “IC50 of blocking IL-5 induced eosinophil adhesion” value in experiment [6] was 0.0043 µg/mL. This molecule also displayed a Kd in experiment [7] of 0.0545 nM. Moreover, the IC50 in experiment [8] was determined as 0.0247 µg/mL. Also, the binding result in experiment [9], in [10], in experiment [11], in experiment [12], in [13] and in experiment [14] was “no binding (tested: 40 nM)” each time. In addition, the binding result in experiment [15], in experiment [16], in [17], in experiment [18] and in [19] was “no binding (tested: 40 nM)” throughout.

B3: h1705-008 (antibody, human IgG1, kappa, V domains shown)
VH: B1 VH with R16G, K19R, T23A, K42G, A75S, S77N, S88A, V112T, M113L
VL: B2 VL with G30A, M47L, S50G, A51T, G66R, Y71F, F87Y, H91D, Q93E
notes: IgG1 with M252Y/S254T/T256E, kappa
For B3, the “IC50 of inhibition of IL-5 induced TF1 cell proliferation” value in experiment [5] came to 0.2 nM. Besides, the “IC50 of blocking IL-5 induced eosinophil adhesion” value in experiment [6] was 0.00485 µg/mL. This molecule came in with a Kd in experiment [7] of 0.0342 nM. For the same molecule, the IC50 in [8] worked out at 0.0145 µg/mL. Further, the binding result in [9], in [10], in experiment [11], in experiment [12], in [13] and in experiment [14] was “no binding (tested: 40 nM)” throughout. Besides, the binding result in experiment [15], in [16], in [17], in [18] and in [19] was “no binding (tested: 40 nM)” throughout.
